In the supplement of paper PMC10724198:
± gives the standard deviation of the averaged measurements.

System: Saccharomyces cerevisiae
Test: protein stability index of tFT-peptide fusion (C-terminal peptide) (PSI (0-1 scale)); higher = more stable (slower turnover)
Settings: genetic background: wild type; temperature: 30 C
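Also: PSI is a weighted mean of sequencing reads over stability bins, variants kept only with over 10 reads, mCherry proximal and sfGFP distal, peptide attached via GGGS linker.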

Row | Sequence | protein stability index
1 | FAAKASVLRMRR | 0.605 ± 0.029
2 | LFVYSSVALSSQ | 0.59301 ± 0.00049
3 | LSVGLVPFRWRV | 0.6584 ± 0.0017
4 | GKAKGRESGDRQ | 0.678 ± 0.039
5 | IKNEEKKLIESQ | 0.76 ± 0.073
6 | GSGGRGTVCSEG | 0.652 ± 0.015
7 | CFASTFVSPILH | 0.694 ± 0.03
8 | SCYRSCGALLSA | 0.694 ± 0.011
9 | DLCITNTMLFYL | 0.7025 ± 0.006
10 | ERGEEESGRSGS | 0.7225 ± 0.0046
11 | PPPPLRPHHLTS | 0.696 ± 0.021
12 | SPRIDFLLPCSS | 0.647 ± 0.032
13 | IKKRDKAKKEYI | 0.672 ± 0.0077
14 | AGALGADRWGLK | 0.741 ± 0.0085
15 | ASSLPIWLVWWL | 0.536 ± 0.02
16 | RGGGRGGRPRMC | 0.607 ± 0.085
17 | GGRGGAVEERGG | 0.67 ± 0.0078
18 | VTHREFAGSALG | 0.698 ± 0.022
19 | KAGHEPRLTRKQ | 0.667 ± 0.022
20 | PPDYPAPPPPPL | 0.695 ± 0.034
21 | QTIKKKKKDKKN | 0.764 ± 0.011
22 | EGDGLVWGGQGG | 0.691 ± 0.0078
23 | SKLQGYRKLLST | 0.567 ± 0.0065
24 | CGYVSGGWAGNV | 0.691 ± 0.025
25 | WAFGFLFISSAM | 0.5077 ± 0.0014
26 | DIVVGANISSIN | 0.641 ± 0.02

Row | Sequence | protein stability index
27 | SEDLSNNMKQDI | 0.688 ± 0.026
28 | GAPPPPPARGDL | 0.764 ± 0.03
29 | LNLTAPPPPHLV | 0.6721 ± 0.0066
30 | PPRLSPAPPASP | 0.605 ± 0.009
31 | VVTGVRFGVGSI | 0.697 ± 0.039
32 | QREGPEKRTHGR | 0.709 ± 0.038
33 | NGWGKWTKTVCQ | 0.646 ± 0.02
34 | ALCLDGCSLGEF | 0.704 ± 0.017
35 | ALGPPAPGPCRA | 0.654 ± 0.021
36 | EKKKKKPKKKRK | 0.687 ± 0.026
37 | VDHWVCWCGGWV | 0.731 ± 0.0098
38 | LPFLVSPPLFRT | 0.664 ± 0.063
39 | KKTKNKKKQNGK | 0.6863 ± 0.0012
40 | PDRQNLSRPEKD | 0.702 ± 0.0092
41 | WFPRLGKRSRGS | 0.69 ± 0.025
42 | PPPIYTPPPPPL | 0.697 ± 0.053
43 | SEDGPTPAPSTD | 0.71 ± 0.059
44 | GLLEGGLWVWGL | 0.692 ± 0.04
45 | TWAVTGDLLITR | 0.815 ± 0.15
46 | FAPCSPKAVFCS | 0.589 ± 0.037
47 | ALRVGTGTVRFE | 0.712 ± 0.051
48 | PPAPSPPPPPPP | 0.622 ± 0.055
49 | KGANISDCLSIF | 0.616 ± 0.018
50 | LRGGGKRREVMG | 0.702 ± 0.099
51 | FARQSMLSKLQI | 0.587 ± 0.033
52 | LGAHLSTAPPPP | 0.655 ± 0.022

Row | Sequence | protein stability index
53 | SYTAPPLLRSSY | 0.679 ± 0.015
54 | FEVRLRCLGYSG | 0.718 ± 0.015
55 | TTVRTVSLIDRI | 0.689 ± 0.059
56 | CRLRLVYCVKYD | 0.621 ± 0.013
57 | PFPLPPPPSPTP | 0.699 ± 0.03
58 | PFSSVFNPGVLS | 0.644 ± 0.017
59 | PSHSRSRPPPYL | 0.742 ± 0.1
60 | PLRPPCPLPPRT | 0.6031 ± 0.0056
61 | RPPISLGSLLVG | 0.714 ± 0.1
62 | GEVVGRCGAWVC | 0.611 ± 0.033
63 | PGFTLLDFCLYH | 0.725 ± 0.0091
64 | GVGGRAGWGGLL | 0.7167 ± 0.002
65 | STALVFSDSALL | 0.694 ± 0.061
66 | RPQNDRKMRKVE | 0.621 ± 0.059
67 | LQTLDVFTTMKL | 0.58 ± 0.045
68 | SQGLWRGVALTG | 0.7325 ± 0.0017
69 | RSSPPHLPPPSL | 0.68 ± 0.026
70 | CAAYIYLGGSFF | 0.707 ± 0.033
71 | QADAPPGDTNTL | 0.727 ± 0.041
72 | PSPRSPVPLTPS | 0.708 ± 0.015
73 | RDGGVHVFATLM | 0.626 ± 0.018
74 | ASRPAPPAPAFL | 0.675 ± 0.005
75 | APPLPTHYCPHL | 0.841 ± 0.23
76 | TMEKKAKKRIKK | 0.682 ± 0.23
77 | GSQRAHRQAAHD | 0.683 ± 0.077
78 | LGVMLLEGWRVM | 0.656 ± 0.018

Row | Sequence | protein stability index
79 | PLPPLPPTAPPP | 0.686 ± 0.015
80 | HRPPSVNRVSLM | 0.692 ± 0.012
81 | EKDRAVGAAKAA | 0.631 ± 0.12
82 | STVGSKLCWESS | 0.682 ± 0.072
83 | RPPPHPPFPPRF | 0.714 ± 0.052
84 | LLSPAPPLPPAP | 0.666 ± 0.057
85 | RSRYRLFRADLS | 0.753 ± 0.062
86 | LPLRAHPTISFP | 0.751 ± 0.05
87 | AFDKDLLGMMFS | 0.692 ± 0.024
88 | WIPITSDKCNFK | 0.709 ± 0.06
89 | GARPRSGVRGGT | 0.723 ± 0.022
90 | AERCVLEKSPRL | 0.743 ± 0.064
91 | PPLPLPPPHPPP | 0.503 ± 0.047
92 | CGCSLPGFCFLA | 0.53 ± 0.022
93 | LPRRDPGPSKEP | 0.66644 ± 0.00038
94 | IGVVKHGAAEKV | 0.711 ± 0.069
95 | YLPRHPLPPFPV | 0.681 ± 0.14
96 | RLSMCLDDPPRL | 0.717 ± 0.025
97 | LILRPLPPPLPP | 0.5623 ± 0.0014
98 | RCLPSASYPACS | 0.691 ± 0.074
99 | LGWWWVWSWGRG | 0.668 ± 0.04
100 | GNLFIGLLHITC | 0.5753 ± 0.0034
101 | KKKKKKQKKKIQ | 0.741 ± 0.05
102 | KRGRRKLQRGRQ | 0.679 ± 0.028
103 | RCCGGSEVVRAG | 0.705 ± 0.014
104 | RHYGRSLRLIKT | 0.59 ± 0.011

Row | Sequence | protein stability index
105 | LFKKVGGRSLVW | 0.6813 ± 0.0036
106 | RVGRKGRRRGSR | 0.767 ± 0.07
107 | KRLTSKVKTITG | 0.694 ± 0.031
108 | GGVVGVMWGGVR | 0.624 ± 0.029
109 | SLGFRSLGFDRV | 0.7195 ± 0.0024
110 | GLGMIIQNIIHS | 0.642 ± 0.026
111 | GGWGGEVVLWQA | 0.678 ± 0.073
112 | ARSSILRCRGYR | 0.747 ± 0.095
113 | ACSHFLEEFCFF | 0.75 ± 0.046
114 | GRGEDLVRRHTP | 0.668 ± 0.032
115 | QVVIGRLSSQVG | 0.664 ± 0.038
116 | RSASPPRPLPPP | 0.737 ± 0.032
117 | CKNRLKMKQESK | 0.658 ± 0.028
118 | GGEGAAWAGGVG | 0.558 ± 0.028
119 | GPSLLLLSVLSE | 0.6225 ± 0.003
120 | GRGEGVDRSSRR | 0.703 ± 0.017
121 | LHPRPPLFLHPL | 0.692 ± 0.015
122 | PPPPPLSSPPSP | 0.652 ± 0.049
123 | VSGICCRGVLLL | 0.6268 ± 0.00045
124 | PLLSAFPPRPFP | 0.682 ± 0.12
125 | TSPPPPSRPPSH | 0.691 ± 0.029
126 | WGGVGLWGGWDG | 0.723 ± 0.058
127 | VPCLVHEVYDEV | 0.732 ± 0.029
128 | GVERSLFGRIGV | 0.735 ± 0.024
129 | PPPTRPSQAPHL | 0.645 ± 0.11
130 | GGMEGRVACSAQ | 0.74 ± 0.057

Row | Sequence | protein stability index
131 | EYAVDAERLRTT | 0.72 ± 0.053
132 | KTLYIAKTKSRA | 0.644 ± 0.038
133 | TERGRLVWYCMR | 0.674 ± 0.077
134 | RPPSLWRSSFTP | 0.6822 ± 0.0026
135 | HQPSPFPKNSPT | 0.717 ± 0.06
136 | SNKATNEGNVNV | 0.68 ± 0.025
137 | SSFRASVRSRKT | 0.692 ± 0.022
138 | CSLSYFSAHCVP | 0.665 ± 0.044
139 | PPLRPPPPPPPP | 0.668 ± 0.072
140 | SGYSTRPLSSRS | 0.723 ± 0.041
141 | FRWGGPSGEVRE | 0.643 ± 0.1
142 | KSLYLVDDRVGR | 0.764 ± 0.078
143 | EDFCMVEQPGVE | 0.7012 ± 0.0054
144 | LLGGLHIPHPLR | 0.681 ± 0.052
145 | QYGMSSQGGGHN | 0.7312 ± 0.0017
146 | PHLEVPARPRGT | 0.7148 ± 0.0042
147 | GGCFGGVGVGSG | 0.7122 ± 0.0045
148 | NDKPKKKYRKTR | 0.64 ± 0.018
149 | DKVIIRKLRTSK | 0.6863 ± 0.0051
150 | GAASHLERGQVP | 0.634 ± 0.089
151 | GGGGETGRERKD | 0.655 ± 0.0061
152 | SRNAFTLAARVY | 0.589 ± 0.016
153 | LASYSSCYIRDF | 0.751 ± 0.017
154 | AAPRPYRPCYPN | 0.664 ± 0.029
155 | SPHTRPDPPPLP | 0.681 ± 0.071
156 | FPPARPDFPPST | 0.735 ± 0.025

Row | Sequence | protein stability index
157 | YSLPPAPQPLPP | 0.772 ± 0.092
158 | PHPRPPPLSFAP | 0.681 ± 0.035
159 | GAFRLGSIVGVP | 0.735 ± 0.032
160 | AGPPPIFGHHTQ | 0.765 ± 0.036
161 | SVPGLELGLPLR | 0.675 ± 0.061
162 | GFVCRRFRFGCI | 0.634 ± 0.037
163 | SDGVSLRSFCWL | 0.697 ± 0.035
164 | FLGLDLVFRFFV | 0.554 ± 0.066
165 | WICFDFLLPVAL | 0.549 ± 0.025
166 | SLLVSRVVFRGN | 0.769 ± 0.12
167 | ARAGQGEWGGGV | 0.701 ± 0.033
168 | KIRFGRCLRSSF | 0.746 ± 0.033
169 | ACGAWAVVGLLG | 0.679 ± 0.042
170 | RRGAPSYATLAL | 0.637 ± 0.0073
171 | ASSLLPIPPPPF | 0.706 ± 0.012
172 | PTTTLYNPSPPN | 0.742 ± 0.043
173 | TRFFFLLCRRSL | 0.57 ± 0.082
174 | DPFYRNFARREA | 0.738 ± 0.026
175 | LSISGSVHILKD | 0.733 ± 0.024
176 | SRAGAVLSGIES | 0.669 ± 0.013
177 | GWALGRGRRVSG | 0.691 ± 0.033
178 | VVLSCGIPGCVF | 0.572 ± 0.028
179 | ASPSYLFFLLPC | 0.5788 ± 0.0018
180 | SQRPPPLCDFTD | 0.723 ± 0.013
181 | LKNKVDGKVSGK | 0.6014 ± 0.0045
182 | GLVCSHLRTAGS | 0.6857 ± 0.0063

Row | Sequence | protein stability index
183 | HIGSYTFILPSS | 0.759 ± 0.064
184 | FVGAYGRLCCMS | 0.69 ± 0.031
185 | PPRPSPPLSPLP | 0.72 ± 0.042
186 | TPPLPRFHAPQP | 0.665 ± 0.017
187 | TPWLRGVVGPGS | 0.671 ± 0.083
188 | KKGNKYNNKRKK | 0.69 ± 0.04
189 | PLSYRRFTRLPR | 0.68 ± 0.066
190 | KQRGTRGNKANE | 0.6231 ± 0.0058
191 | RIRTLASRRLEG | 0.709 ± 0.1
192 | PSFPSSPSPVTL | 0.69 ± 0.035
193 | RKSRKPNSEPKR | 0.717 ± 0.0072
194 | IDVIIESVFSLF | 0.619 ± 0.09
195 | RGSILTTVNPPR | 0.75 ± 0.13
196 | PLYSLVSPPYAT | 0.651 ± 0.019
197 | FHFFSFLSSVGF | 0.6434 ± 0.0062
198 | LETEVDIYWLYR | 0.605 ± 0.048
199 | VGASFVAVGVEG | 0.641 ± 0.041
200 | WGGFLVDFGFQG | 0.757 ± 0.046
201 | FLKGTTSQQDYT | 0.7022 ± 0.0056
202 | VGGVWGGGWGHW | 0.736 ± 0.021
